Test results from patent US20240082402A1 (ELPIS BIOPHARMACEUTICALS, published 2024).
One block for each binder: values may come before it.

Key:
[1] = target: T1, full-length human CD19 on transfected K562 cells (human, UniProt P15391 20-556); assay: FACS, scFv at 200 nM on CD19 K562 cells, Alexa Fluor 647 anti-His detection, % positive cells
T1 construct: whole, on cells; K562 clone transfected with pCMV6-Entry; also called CD19 K562; CD19/K562; not shown: flag or Myc tag at the C-terminus
T1 sequence (looked up): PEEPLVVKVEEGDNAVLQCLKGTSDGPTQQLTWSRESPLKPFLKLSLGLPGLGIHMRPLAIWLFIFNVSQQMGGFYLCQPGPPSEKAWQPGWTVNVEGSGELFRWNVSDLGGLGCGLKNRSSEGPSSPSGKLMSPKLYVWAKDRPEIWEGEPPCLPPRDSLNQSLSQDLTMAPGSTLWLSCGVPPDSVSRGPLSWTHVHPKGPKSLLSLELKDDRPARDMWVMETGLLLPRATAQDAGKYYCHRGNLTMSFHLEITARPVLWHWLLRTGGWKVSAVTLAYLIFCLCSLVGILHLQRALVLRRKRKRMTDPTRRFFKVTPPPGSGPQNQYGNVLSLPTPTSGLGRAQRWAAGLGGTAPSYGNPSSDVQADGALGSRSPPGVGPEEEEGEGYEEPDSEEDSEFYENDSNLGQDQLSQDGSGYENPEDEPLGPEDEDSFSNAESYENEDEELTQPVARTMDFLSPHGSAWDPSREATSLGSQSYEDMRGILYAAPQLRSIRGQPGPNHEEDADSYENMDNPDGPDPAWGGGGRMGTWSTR
Procedure: Cells were spun down at 1300 rpm for 5 minutes at 4° C. to remove unbound antibodies. Cells were then washed once with 200 iaL of PBS per well. […] Samples were then spun down at 1300 rpm for 5 minutes at 4° C. and washed twice with 200uL of 1×PBS per well. The resultant samples were reconstituted in 200 uL of 1×PBS and read on Attune™ NxT Flow Cytometer.

[2] = target: T2, endogenous CD22 on Raji / Nalm6 cells (also on CD19 knock-out Raji cells) (human, UniProt P20273 20-847); assay: FACS, scFv at 200 nM on Raji and Nalm6 cells, Alexa Fluor 647 anti-His detection, % positive cells
T2 construct: whole, on cells

[3] = target: T3, HIS tagged human CD19 recombinant protein (human, UniProt P15391 20-291, limits assumed); assay: ELISA, His-tagged CD19 coated at 2 µg/mL, anti-hFc HRP detection
T3 construct: also called rhCD19; human CD19-HIS tagged protein; not shown: His tag
T3 sequence (looked up): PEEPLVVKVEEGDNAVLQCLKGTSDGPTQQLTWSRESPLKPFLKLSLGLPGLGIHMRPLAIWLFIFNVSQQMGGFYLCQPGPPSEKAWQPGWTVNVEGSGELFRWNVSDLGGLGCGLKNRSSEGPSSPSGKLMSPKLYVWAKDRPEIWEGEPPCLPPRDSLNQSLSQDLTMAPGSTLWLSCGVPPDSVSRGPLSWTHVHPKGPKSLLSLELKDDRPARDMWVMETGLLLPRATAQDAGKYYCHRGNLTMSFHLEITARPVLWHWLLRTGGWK
Procedure: (§1) Briefly, 384 well plate was immobilized with HIS tagged human CD19 or CD22 recombinant protein at final concentration of 2 μg/mL in 1×PBS in total volume of 25μL per well. The plate was incubated overnight at 4° C. followed by blocking with 80μL of superblock per well for 1 hour. […] CD19 or CD22 binding was detected by adding 25 μL of anti-hFc HRP diluted at 1:5000 in 1×PBST. In between each step, the plate was washed 3 times with 1×PBST in a plate washer. The plate was then developed with 20 μL of TMB substrate for 5 mins and stopped by adding 20 μL of 2 N sulfuric acid. The plate was read at OD450 nm (BIOTEK plate reader) and data plotted using GraphPad Prism® 8.1 software. […]

[4] = target: T3, HIS tagged human CD19 recombinant …; assay: SPR Biacore T200, Fc fusion captured on Protein A chip, His-tagged CD19 as analyte
Procedure: (§2) The assay was run using Biacore™ T200 control software version 2.0. For each cycle, 1 μg/mL of Fc-fusion protein was captured for 60 seconds at flow rate of 10 ul/min on flow cell 2 in 1×HBSP buffer on Protein A sensor chip. 2-fold serial human CD19 or CD22-HIS tagged protein was injected onto both reference flow cell 1 and Fc fusion protein captured flow cell 2 for 150 seconds at flow rate of 30 μl/mins followed by wash for 300 seconds. The flow cells were then regenerated with Glycine pH2 for 60 seconds at flow rate of 30 ul/mins. 8 concentration points from 100-0 nM was assayed per Fc fusion in a 96 well plate. The kinetics of Anti-CD19, CD22, CD22-CD19 binding to CD19 or CD22 protein was analyzed using Biacore™ T200 evaluation software version 3.0. The specific binding response unit was derived from subtraction of binding to reference flow cell-1 from Fc fusion protein captured flow cell-2.

[5] = target: T4, HIS tagged human CD22 recombinant protein (human, UniProt P20273 20-687, limits assumed); assay: ELISA, His-tagged CD22 coated at 2 µg/mL, anti-hFc HRP detection
T4 construct: also called rhCD22; human CD22-HIS tagged protein; not shown: His tag
Procedure: as §1

[6] = target: T4, HIS tagged human CD22 recombinant …; assay: SPR Biacore T200, Fc fusion captured on Protein A chip, His-tagged CD22 as analyte
Procedure: as §2

[7] = target: T5, endogenous CD19 on Raji / Nalm6 cells (also on CD22 knock-out Raji cells) (human, UniProt P15391 20-556); assay: FACS, scFv-Fc fusion on CD22 knock-out Raji cells (which keep CD19)
T5 construct: whole, on cells
T5 sequence (looked up): T1 sequence (looked up)

[8] = target: T3, HIS tagged human CD19 recombinant …; assay: ELISA, plate coated with His-tagged human CD19 at 2 ug/mL, anti-hFc HRP detection
Procedure: as §1

[9] = target: HIS tagged human CD22 recombinant protein (human) (UniProt P20273); assay: ELISA, His-tagged CD22 coated at 2 µg/mL, anti-hFc HRP detection
[10] = target: HIS tagged human CD19 recombinant protein (human) (UniProt P15391); assay: ELISA, His-tagged CD19 coated at 2 µg/mL, anti-hFc HRP detection
[11] = target: HIS tagged human CD19 recombinant protein (human) (UniProt P15391); assay: SPR Biacore T200, Fc fusion captured on Protein A chip, His-tagged CD19 as analyte
[12] = target: HIS tagged human CD22 recombinant protein (human) (UniProt P20273); assay: SPR Biacore T200, Fc fusion captured on Protein A chip, His-tagged CD22 as analyte

- binding result [1]: no binding (tested: 200 nM)
- binding result [2]: binds
B1: EPC-001-2 (scFv)
scFv (VH-linker-VL): QVQLVQSGAEVKRPGASVKVSCKASGYTFTSYGISWVRQAPGQGLEWMGWISAYNGNTNYAQKLQGRVTMTTDTSTSTAYMELRSLRSDDTAVYYCARDPGIAVAGTVDYWGQGTLVTVSSGGGGSGGGGSGGGGSEIVMTQSPATLSVSPGEGVTLSCRASQSVSSNLAWYQQRPGQAPRLLIYGASIKATDVPDRFSGGGSGTDFTLSISNVQSEDFAVYYCQQYHTWTPVTFGGGTKVEIK
notes: also called anti-CD22 monospecific scFv; parental anti-CD22 scFv

- EC50 [3]: 9.4 pM
- Kd [4]: 3750 pM
- koff [4]: 0.000223 s⁻¹
- kon [4]: 59400 M⁻¹ s⁻¹
B2: anti-CD19 scFv-Fc (Fc fusion, not shown: a dimerising Fc or GST)
chain: QVQLQQWGAGLLKPSETLSLTCAVYGGSFSGYYWTWIRQPPGKGLEWIGEINHGGSSNYNPSLKSRVTISVDTSKKQFSLNLNSVTAADTAVYYCARGLGYRSGWYEVENAFDIWGQGTMVTVSSGGGGSGGGGSGGGGSQPVLTQPPSVSVAPGQTARITCGGNKIESRSVHWYQQKPGQAPVLVVYDDGARPSGIPERLSGSNSGDTATLTISRVEPGDEADYYCQVWDGSSVIFGGGTKLTVL
notes: also called anti-CD19-Fc

- EC50 [5]: 43 pM
- Kd [6]: 1440 pM
- koff [6]: 0.000177 s⁻¹
- kon [6]: 122000 M⁻¹ s⁻¹
- binding result [7]: no binding
- binding result [8]: no binding (tested: 25 nM)
B3: anti-CD22 scFv-Fc (Fc fusion, not shown: a dimerising Fc or GST)
chain: EVQLVQSGAEVKKPGASVKVSCKASGYTFTSYGISWVRQAPGQGLEWMGWISAYNGNTNYAQKLQGRVTMTTDTSTSTAYMELRSLRSDDTAVYYCARDYGDPSGDDYWGQGTLVTVSSGGGGSGGGGSGGGGSEIVLTQSPATLSVSPGEGVTLSCRASQSVSSNLAWYQQRPGQAPRLLIYGASIKATDVPDRFSGGGSGTDFTLSISNLQSEDFAVYYCQQYHTWPPVTFGGGTKVEIK
notes: also called Anti-CD22-Fc

- EC50 [9]: 189 pM
- EC50 [10]: 52 pM
- Kd [11]: 4370 pM
- koff [11]: 0.00025 s⁻¹
- kon [11]: 57200 M⁻¹ s⁻¹
- Kd [12]: 3370 pM
- koff [12]: 0.000266 s⁻¹
- kon [12]: 79000 M⁻¹ s⁻¹
B4: Anti-CD22scFv-CD19scFv-Fc (bispecific antibody, part only; not given: Fc and inter-scFv linker, not shown: a dimerising Fc or GST)
chain, part: EVQLVQSGAEVKKPGASVKVSCKASGYTFTSYGISWVRQAPGQGLEWMGWISAYNGNTNYAQKLQGRVTMTTDTSTSTAYMELRSLRSDDTAVYYCARDYGDPSGDDYWGQGTLVTVSSGGGGSGGGGSGGGGSEIVLTQSPATLSVSPGEGVTLSCRASQSVSSNLAWYQQRPGQAPRLLIYGASIKATDVPDRFSGGGSGTDFTLSISNLQSEDFAVYYCQQYHTWPPVTFGGGTKVEIKQVQLQQWGAGLLKPSETLSLTCAVYGGSFSGYYWTWIRQPPGKGLEWIGEINHGGSSNYNPSLKSRVTISVDTSKKQFSLNLNSVTAADTAVYYCARGLGYRSGWYEVENAFDIWGQGTMVTVSSGGGGSGGGGSGGGGSQPVLTQPPSVSVAPGQTARITCGGNKIESRSVHWYQQKPGQAPVLVVYDDGARPSGIPERLSGSNSGDTATLTISRVEPGDEADYYCQVWDGSSVIFGGGTKLTVL
